Measurements taken from the supplement of paper PMC10724198.
± gives the standard deviation of the averaged measurements.

What follows are sequences tested on Saccharomyces cerevisiae (assay: protein stability index of tFT-peptide fusion (C-terminal peptide) (PSI (0-1 scale)); higher = more stable (slower turnover)). Settings: genetic background: wild type; temperature: 30 C.
Description: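 Multiplexed protein stability (MPS) profiling in S. cerevisiae. Random 12-aa peptides (tFT-X12 library) are fused to the C-terminus of a sfGFP-mCherry tandem fluorescent timer, after mCherry and a GGGS linker. Cells are FACS-sorted into 8 mCherry/sfGFP bins and deep-sequenced. The protein stability index (PSI) is the read-weighted bin average, scaled from 0 (unstable) to 1 (stable). Only peptides with >10 reads are reported; cells were grown at 30 °C in SC-His with glucose.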
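Also: PSI is a weighted mean of sequencing reads over stability bins, variants kept only with over 10 reads, mCherry proximal and sfGFP distal, peptide attached via GGGS linker.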

Sequence | protein stability index
FSYCFRLLPSSL | 0.558 ± 0.096
FTCVVRRGDIQL | 0.675 ± 0.056
FTFFFNCYSRSS | 0.655 ± 0.038
FTPPPLLLPPPP | 0.698 ± 0.0037
FTWRTIRPRCQW | 0.7184 ± 0.005
FTYGPVQGAARG | 0.717 ± 0.015
FVCCSIRFGCGW | 0.604 ± 0.014
FVFDVTAYRGLL | 0.738 ± 0.03
FVFWCFGSFCSC | 0.553 ± 0.015
FVGMLSDRAPPP | 0.742 ± 0.041
FVGSFYWSGFYV | 0.70213 ± 0.00049
FVGSVFWCWSGR | 0.706 ± 0.032
FVLLSPRYSPPR | 0.676 ± 0.027
FVSFTAVALFFG | 0.567 ± 0.035
FVSGSVCPLLPP | 0.667 ± 0.026
FVSVSVRFHHSF | 0.575 ± 0.056
FVVAERSDRNLV | 0.6875 ± 0.00093
FWGGGRGLVGEV | 0.664 ± 0.024
FWGQNKVCLSCQ | 0.571 ± 0.09
FWGRYIGRDRGT | 0.62 ± 0.12
FWMIYPHLLTPP | 0.629 ± 0.036
FYCSWGGNDVDN | 0.692 ± 0.075
FYLLTASVCGMF | 0.53 ± 0.0053
FYPRPTVPPHGL | 0.585 ± 0.024
GAAKDYLMALEG | 0.705 ± 0.076

Sequence | protein stability index
GAAVWGPLCVWL | 0.6534 ± 0.0052
GAEAFWAVRGGG | 0.721 ± 0.009
GAGAVRPPARAS | 0.699 ± 0.059
GAGGGRSERERG | 0.593 ± 0.0074
GAGLSLALSGPL | 0.607 ± 0.0094
GAGRGLRQGSGG | 0.666 ± 0.043
GAIKKTQGGGYK | 0.69 ± 0.019
GAKVALLSFGFA | 0.667 ± 0.1
GALPPPPARGDL | 0.768 ± 0.024
GAMVVRSSSPWT | 0.685 ± 0.019
GANSILRDIEFL | 0.69 ± 0.05
GARGGSGGGQPG | 0.661 ± 0.019
GARGIHSVRVRR | 0.713 ± 0.053
GARGLVGHWRRG | 0.615 ± 0.035
GARGRAYDRTSQ | 0.669 ± 0.038
GASSSPAQGCSL | 0.691 ± 0.048
GATAGNPEATPS | 0.624 ± 0.074
GATLGRQEPGHS | 0.671 ± 0.056
GAVGDRVRVCGS | 0.668 ± 0.02
GAWVAVTWAAGL | 0.729 ± 0.018
GAWVFLSSRVVH | 0.7227 ± 0.0054
GCCACDIGGEGG | 0.642 ± 0.0079
GCCWVVISPAGY | 0.616 ± 0.044
GCFGLLVSSLFS | 0.7111 ± 0.0024
GCGARSVQSLGD | 0.707 ± 0.039

Sequence | protein stability index
GCGGGVCGWWDA | 0.916 ± 0.12
GCGGVGGFGGGL | 0.605 ± 0.047
GCGREGGGLDKD | 0.781 ± 0.094
GCGRGGIAGGPR | 0.702 ± 0.0014
GCGSVVVGVGGG | 0.652 ± 0.028
GCLCWVLSGRGA | 0.68 ± 0.035
GCQLLSEVSVCL | 0.667 ± 0.0079
GCRRGGGFLECV | 0.633 ± 0.034
GCRRGGGMERAQ | 0.649 ± 0.05
GCSLWCPDFCLC | 0.665 ± 0.0097
GCVVLGFDSVAV | 0.842 ± 0.2
GDECHSCSSPIA | 0.786 ± 0.13
GDGGCKVEWVRG | 0.724 ± 0.012
GDGLGFNRPNGR | 0.659 ± 0.025
GDGWPTRSGGTG | 0.701 ± 0.01
GDISILGSEYSM | 0.728 ± 0.0091
GDLASASAWGVR | 0.681 ± 0.026
GDPWLGVRNAVG | 0.749 ± 0.22
GDQTLVSSRQSG | 0.6603 ± 0.002
GDRGFTTEAGNC | 0.67 ± 0.018
GDRGTLTPLRRQ | 0.678 ± 0.0073
GDSSRVGPVGRA | 0.714
GDVRLWMRGIER | 0.803 ± 0.077
GEECGRERLMCF | 0.7291 ± 0.0055
GEEEGSQGGCEV | 0.6611 ± 0.0061

Sequence | protein stability index
GEGFLRVGLADV | 0.761 ± 0.09
GEGLGIGGYVRG | 0.672 ± 0.044
GEKSSDDYEVKD | 0.6554 ± 0.002
GESGGVGGQCWR | 0.74 ± 0.0082
GESPSRVRSSAG | 0.694 ± 0.036
GESSLSTGAQHK | 0.67 ± 0.021
GESWEKVMNKRM | 0.704 ± 0.049
GFAALLSSLFFL | 0.683 ± 0.061
GFAIWRDGKYRR | 0.674 ± 0.022
GFCSVIVLSLLL | 0.487 ± 0.041
GFFSCAPFPFNG | 0.741 ± 0.082
GFGILGLPQPCV | 0.662 ± 0.067
GFINYDHKVIRI | 0.77 ± 0.023
GFLCGFVGVFAD | 0.56953 ± 0.00032
GFLGTLARAGRE | 0.657 ± 0.068
GFLVALVSRIGW | 0.565 ± 0.037
GFRALRCPTAFS | 0.742 ± 0.078
GFRFSERRFPGL | 0.733 ± 0.0092
GFRGGAYRWCIS | 0.701 ± 0.03
GFSGLRGFWSGM | 0.713 ± 0.04
GFSGSPWSNPFV | 0.8663 ± 0.0025
GFSKNCSCVVLC | 0.559 ± 0.029
GFVGTVHLKCIS | 0.642 ± 0.031
GFVRGDRSGVGG | 0.702 ± 0.036
GFWSRIGDLFRG | 0.698 ± 0.037

Sequence | protein stability index
GGAGEAWGGLRW | 0.767 ± 0.025
GGAGGVVGGGGG | 0.616 ± 0.018
GGARVAVCEGGE | 0.771 ± 0.026
GGAVRSGRLFCC | 0.648 ± 0.022
GGAWESGRVEQV | 0.684 ± 0.041
GGCAGGVGRLAV | 0.692 ± 0.011
GGCFGGVGGGSG | 0.707 ± 0.034
GGCLSVLGLGSV | 0.688 ± 0.031
GGCRQKPRGGAD | 0.666 ± 0.09
GGCSDKVVRGGV | 0.695 ± 0.014
GGCVGVLGGWGV | 0.695 ± 0.012
GGDGGGERGEGK | 0.701 ± 0.027
GGDVHGEGNVCG | 0.698 ± 0.027
GGDWVGHVLDLW | 0.708 ± 0.012
GGEGGWLGEGIG | 0.59 ± 0.0098
GGESENEVGSRS | 0.644 ± 0.038
GGEVPFRLCRLW | 0.6914 ± 0.0019
GGFFLFAVGVGN | 0.627 ± 0.013
GGGAGGGGVVVR | 0.643 ± 0.016
GGGARCGGGCRV | 0.684 ± 0.03
GGGARGDCLMGS | 0.6809 ± 0.0018
GGGARGGGGWGG | 0.631 ± 0.097
GGGCRASSLFPE | 0.6644 ± 0.0058
GGGEGREEQEGR | 0.701 ± 0.019
GGGEGVPDSASE | 0.668 ± 0.021

Sequence | protein stability index
GGGGAGGGGGGG | 0.6739 ± 0.0021
GGGGATSGRLSR | 0.705 ± 0.023
GGGGCVMGVGRV | 0.668 ± 0.0092
GGGGGAGGDGRG | 0.66 ± 0.022
GGGGGAKGEGVR | 0.733 ± 0.1
GGGGGGGGAGGV | 0.6985 ± 0.0011
GGGGGGGGAWSG | 0.723 ± 0.037
GGGGGGVRWASG | 0.707 ± 0.051
GGGGGSMDLRDR | 0.697 ± 0.0076
GGGGGVWWVGRV | 0.678 ± 0.074
GGGGLFGCWVCG | 0.654 ± 0.011
GGGGMVVGEVVG | 0.685 ± 0.038
GGGGPGLEARSL | 0.618 ± 0.0078
GGGGRGGVVRSG | 0.634 ± 0.095
GGGGRGMWGIFG | 0.676 ± 0.045
GGGGSCWYGNRL | 0.6353 ± 0.0027
GGGGVFGVVRVG | 0.631 ± 0.037
GGGGWGRGKGCW | 0.719 ± 0.0079
GGGIERYCWLQI | 0.708 ± 0.067
GGGKRGDMSVVV | 0.689 ± 0.0092
GGGKRSERGGEP | 0.672 ± 0.12
GGGLGRRLLGGR | 0.69 ± 0.078
GGGRALGRVWPG | 0.684 ± 0.017
GGGRGAGIPVIF | 0.623 ± 0.073
GGGRGDWALRGG | 0.751 ± 0.011

Sequence | protein stability index
GGGRGVAVVWVV | 0.61 ± 0.023
GGGRRVCGVLAV | 0.619 ± 0.013
GGGSGVLEWGSV | 0.714 ± 0.12
GGGVEAIEVSQG | 0.678 ± 0.041
GGGVGRLAGLLG | 0.693 ± 0.046
GGGVRWGVGRGG | 0.652 ± 0.025
GGGVSCGRWGTG | 0.639 ± 0.086
GGGVSFWLGGVA | 0.633 ± 0.045
GGGVVGPGGVLK | 0.705 ± 0.11
GGGWGAGVRLTW | 0.757 ± 0.021
GGGWGGGGGVWG | 0.686 ± 0.047
GGGWRLIVLGWW | 0.585 ± 0.087
GGHSVRCGGGAL | 0.758 ± 0.037
GGILNLCVTSLC | 0.617 ± 0.022
GGKTRGVRMCGG | 0.648 ± 0.014
GGLGDIHSDDVE | 0.681 ± 0.019
GGLGGGRRGVGR | 0.664 ± 0.012
GGLIWRHGGGRG | 0.688 ± 0.023
GGLLGAGGGCGV | 0.681 ± 0.046
GGLVGACTRLSG | 0.657 ± 0.035
GGPGGGRPGPRA | 0.6972 ± 0.0026
GGPGGGVSGWEG | 0.704 ± 0.12
GGPVDGSVDRGR | 0.627 ± 0.017
GGRALVGGRRHG | 0.756 ± 0.14
GGRAQVGGWWGR | 0.774 ± 0.031

Sequence | protein stability index
GGRGAGGGVELR | 0.661 ± 0.075
GGRGAGRGSVGG | 0.679 ± 0.034
GGRGRVGEMGGR | 0.677 ± 0.015
GGRHARRGRRRR | 0.75 ± 0.11
GGRRVVKSWVLG | 0.66 ± 0.014
GGSGAGRRGGGR | 0.72 ± 0.03
GGSGGRVGVAGG | 0.645 ± 0.062
GGSRGWGAAAGR | 0.766 ± 0.065
GGSRPPPFRPPA | 0.724 ± 0.014
GGSRVSGVVGKG | 0.608 ± 0.0076
GGSVGSGSRLVV | 0.715 ± 0.038
GGTGGWVVNRGV | 0.706 ± 0.079
GGTRSDGYTQSR | 0.707 ± 0.017
GGTSVLPPAVLF | 0.762 ± 0.004
GGVCCGGLRGVS | 0.7398 ± 0.0039
GGVCVGLWGGRG | 0.709 ± 0.043
GGVDNWKAIRGI | 0.737 ± 0.043
GGVFCGGGALWA | 0.614 ± 0.014
GGVFWEEGAAER | 0.731 ± 0.023
GGVGATSGRLSR | 0.712 ± 0.011
GGVGGGVRRPGE | 0.669 ± 0.034
